Consider 6 molecules from US20120004117A1 (FORERUNNER PHARMA RESEARCH, published 2012).

Assay [1] concerns the target T1, N-terminally HA-tagged chimeric TM4SF20 version 1 expressed on CHO DG44 cells (chimeric TM4SF20 ver.1_CHO) (human TM4SF20 with the first loop …, UniProt Q53R12 2-229).
T1 construct: also called chimeric TM4SF20 ver.1_ntHA
T1 chain: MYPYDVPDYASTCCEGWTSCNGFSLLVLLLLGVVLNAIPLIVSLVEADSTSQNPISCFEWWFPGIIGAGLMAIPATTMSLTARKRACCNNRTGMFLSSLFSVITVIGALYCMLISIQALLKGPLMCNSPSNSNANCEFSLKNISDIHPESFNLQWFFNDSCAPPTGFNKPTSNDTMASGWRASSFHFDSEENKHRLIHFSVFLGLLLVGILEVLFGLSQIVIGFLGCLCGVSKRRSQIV
Nature of the assay: flow cytometry, hybridoma culture supernatant on chimeric TM4SF20 ver.1_CHO cells. As for the experimental part: (§1) Next, 5×10⁴ cells suspended in FACS buffer were dispensed to a U-bottom 96-well plate. The anti-TM4SF20 antibody (hybridoma culture supernatant) or the HAT medium as a negative control was added thereto at a concentration of 10 μg/mL. After reaction on ice for 1 hour, the cells were washed with FACS buffer. Next, an FITC-labeled anti-mouse antibody (Goat F(ab′)₂ Fragment Anti-mouse IgG (H+L)-FITC, Beckman Coulter, Inc.) was added thereto as a secondary antibody and reacted on ice for 1 hour. The cells were washed with FACS buffer, then suspended in FACS buffer supplemented with 10 μg/mL propidium iodide (PI, Sigma-Aldrich Corp.), and assayed using a flow cytometer. The assay data was analyzed as to PI-negative cell populations using CELLQuest software. As a result, all the clones bound to TM4SF20_CHO but to neither […] nor DG44 cells (FIG. 4).
(§2) Next, the binding of the anti-TM4SF20 antibody (hybridoma culture supernatant) was confirmed by flow cytometry in the same way as in Example 3. As a result, all the clones bound to chimeric TM4SF20 ver.1_CHO but to neither chimeric TM4SF20 ver.2_CHO nor DG44 cells (FIG. 6).
(In general: In flow cytometry, cells or beads pass a laser one at a time.)

The target of assay [2] is T2, GST_TM4SF20_C2 (human).
T2 construct: Tested as whole E. coli lysate, denatured, in western blotting; not shown: glutathione S-transferase (GST) tag encoded by the vector pGEX-6P-1 (GE Healthcare), upstream of the BamHI site
T2 chain: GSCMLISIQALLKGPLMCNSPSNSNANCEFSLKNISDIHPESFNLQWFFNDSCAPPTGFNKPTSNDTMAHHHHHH
Nature of the assay: western blotting of E. coli whole cell lysate, purified antibody. As for the experimental part: (§3) Each construct was expressed using BL21 (DE3) Competent Cells (Takara Bio Inc.). The whole cell lysate was electrophoresed by SDS-PAGE and then transferred to a PVDF membrane (Immobilon-P, Millipore Corp.) for western blotting. The construct was detected using the anti-TM4SF20 antibody (purified antibody) at a concentration of 5 μg/mL, a 3000 fold-diluted secondary antibody (HRP-anti mIgG, GE Healthcare Bio-Sciences Corp.), and ECL Western Blotting Detection Reagents (GE Healthcare Bio-Sciences Corp). The expression of each construct was confirmed using an anti-GST antibody (GE Healthcare Bio-Sciences Corp.) and an anti-His antibody (Santa Cruz Biotechnology, Inc.). Secondary antibodies used were a HRP-labeled anti-goat antibody (Invitrogen Corp.) and a HRP-labeled anti-rabbit antibody (GE Healthcare Bio-Sciences Corp.), respectively.
On the technique in general: Immunoblotting shows a protein as a band on a membrane.

Assay [3] deals with T3, GST_TM4SF20_C3 (human).
T3 construct: Tested as whole E. coli lysate, denatured, in western blotting; not shown: glutathione S-transferase (GST) tag encoded by the vector pGEX-6P-1 (GE Healthcare), upstream of the BamHI site
T3 chain: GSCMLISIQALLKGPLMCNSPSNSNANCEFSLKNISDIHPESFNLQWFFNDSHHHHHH
Described as above. How it is done:
as §3

For assay [4], the target named is T4, N-terminally HA-tagged mouse TM4SF20 expressed on CHO DG44 cells (mTM4SF20_CHO) (mouse, UniProt Q9CQY8 2-226).
T4 construct: also called mTM4SF20_ntHA; pCOS2_mTM4SF20_ntHA product
T4 chain: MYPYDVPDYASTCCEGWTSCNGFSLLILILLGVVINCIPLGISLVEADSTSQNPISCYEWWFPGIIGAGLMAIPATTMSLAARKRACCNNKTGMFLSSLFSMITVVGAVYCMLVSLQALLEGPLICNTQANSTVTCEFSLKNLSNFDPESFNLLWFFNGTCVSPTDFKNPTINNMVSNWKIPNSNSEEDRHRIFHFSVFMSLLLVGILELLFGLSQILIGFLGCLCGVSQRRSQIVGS
Nature of the assay: flow cytometry, hybridoma culture supernatant on mTM4SF20_CHO cells. How it is done: as §1

Assay [5] has as its target T5, N-terminally HA-tagged TM4SF20 expressed on Ba/F3 cells (TM4SF20_Ba/F3) (human, UniProt Q53R12 2-229).
T5 construct: Four-transmembrane protein on the cell membrane; also called TM4SF20_ntHA; pMCDN2_TM4SF20_ntHA product
T5 sequence: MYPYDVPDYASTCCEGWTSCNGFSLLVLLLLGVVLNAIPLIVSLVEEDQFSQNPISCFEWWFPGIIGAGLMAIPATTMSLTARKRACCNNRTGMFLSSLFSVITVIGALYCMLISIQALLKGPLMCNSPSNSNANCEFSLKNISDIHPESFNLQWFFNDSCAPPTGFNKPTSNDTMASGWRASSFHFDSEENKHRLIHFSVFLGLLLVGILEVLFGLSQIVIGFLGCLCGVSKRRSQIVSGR
The assay can be described thus: flow cytometry screening of hybridoma supernatants on TM4SF20_Ba/F3 against parental Ba/F3 cells.

The target of assay [6] is T6, human TM4SF20 (Transmembrane 4 L6 family member 20), endogenous (human, UniProt Q53R12 1-229).
T6 construct: Untagged native protein as on A549 lung adenocarcinoma cells and in clinical stomach cancer sections; also called TM4SF20 protein
T6 sequence: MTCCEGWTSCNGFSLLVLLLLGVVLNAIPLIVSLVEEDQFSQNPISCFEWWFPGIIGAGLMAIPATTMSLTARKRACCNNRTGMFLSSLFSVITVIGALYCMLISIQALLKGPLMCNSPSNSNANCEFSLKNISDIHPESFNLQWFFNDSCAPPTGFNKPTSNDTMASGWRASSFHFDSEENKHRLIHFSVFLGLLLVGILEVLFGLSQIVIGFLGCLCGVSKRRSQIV
The assay can be described thus: flow cytometry, purified antibody at 10 µg/mL on A549 cells. How it is done:
as §1
Each anti-TM4SF20 antibody prepared in Example 2 was used to evaluate TM4SF20 expression on the cell membrane of a human cancer cell line by flow cytometry. A primary antibody used was the anti-TM4SF20 antibody (purified antibody) or a negative control antibody (mIgG2a, BD Biosciences Pharmingen). […] The flow cytometry was conducted in the same way as in Example 3 except for the primary antibody used at a concentration of 10 μg/mL. As a result, the expression of TM4SF20 was confirmed on the cell membrane of the A549 cells (FIG. 9)

Assay [7] deals with T7, C-terminally HA-tagged TM4SF20 expressed on CHO DG44 cells (TM4SF20_CHO) (human, UniProt Q53R12 1-229).
T7 construct: also called TM4SF20_ctHA; pCOS2_TM4SF20_ctHA product
T7 sequence: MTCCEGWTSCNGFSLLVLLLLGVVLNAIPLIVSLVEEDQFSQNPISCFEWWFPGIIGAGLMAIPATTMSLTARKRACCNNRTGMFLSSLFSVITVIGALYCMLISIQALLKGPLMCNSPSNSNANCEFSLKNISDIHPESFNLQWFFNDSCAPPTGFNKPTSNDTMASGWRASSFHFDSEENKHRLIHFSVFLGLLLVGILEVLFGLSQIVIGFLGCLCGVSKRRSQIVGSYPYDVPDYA
The assay can be described thus: flow cytometry, hybridoma culture supernatant at 10 µg/mL on TM4SF20_CHO cells. How it is done: as §1

For assay [8], the target named is T8, N-terminally HA-tagged chimeric TM4SF20 version 2 expressed on CHO DG44 cells (chimeric TM4SF20 ver.2_CHO) (human TM4SF20 with the second loop …).
T8 construct: also called chimeric TM4SF20 ver.2_ntHA
T8 chain: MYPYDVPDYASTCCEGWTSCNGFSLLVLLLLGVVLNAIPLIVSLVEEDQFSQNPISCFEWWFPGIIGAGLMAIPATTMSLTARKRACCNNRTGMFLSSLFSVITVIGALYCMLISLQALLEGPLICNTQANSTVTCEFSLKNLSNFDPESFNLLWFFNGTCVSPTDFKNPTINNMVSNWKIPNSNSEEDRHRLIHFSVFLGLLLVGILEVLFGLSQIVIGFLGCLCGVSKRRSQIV
The assay can be described thus: flow cytometry, hybridoma culture supernatant on chimeric TM4SF20 ver.2_CHO cells. As for the experimental part: as §1, §2

B1: anti-TM4SF20 antibody B12 (antibody, mouse IgG1, V domains shown)
VH: QVQLKESGPDLVQPSQTLSLTCTVSGFSLTNYGVHWVRQPPGKGLEWVGTMGWDDKKYYNSALKSRLSISRDTSKNQVFLKLSSLQTEDTAMYYCTRNVNFDYWGQGTTLTVSS
VL: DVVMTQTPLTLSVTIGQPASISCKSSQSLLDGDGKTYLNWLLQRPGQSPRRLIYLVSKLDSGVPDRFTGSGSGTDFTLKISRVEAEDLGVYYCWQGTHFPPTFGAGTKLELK
notes: also called clone B12
Turning to B1, the binding result in assay [1] is recorded as “binds”; in assay [2], “no binding (tested: 5 µg/mL)”; in assay [3] it was “no binding (tested: 5 µg/mL)”; in assay [4], “no binding (tested: 10 µg/mL)”; in assay [5], “binds”; in assay [6] it was “binds”. In addition, the binding result is listed as “binds” in assay [7] and “no binding” in assay [8].

B2: anti-TM4SF20 antibody B11 (antibody, mouse IgG1, V domains shown)
VH: EVQLQQSGPELVKPGASVKMSCKASGYRFTNYVMHWVKQKPGQGLEWIGYINPYNAGTKYNEKFKGKATLTSDKSSSTAYMELSSLTSEDSAVYYCARGAGWSLRFADWGQGTLVTVSA
VL: DILMTQSPSSMSVSLGDTVSITCHASQGISSNIGWLQQKPGKSFKGLIYLATNLEDGVPSRFSGSGSGADYSLTITSLESEDFAVYYCVQYSQFPRTFGGGTKLEIK
notes: also called clone B11
Consider B2, for which the binding result is reported as “binds” in assay [1]; “no binding (tested: 5 µg/mL)” in assay [2]; “no binding (tested: 5 µg/mL)” in assay [3]; “no binding (tested: 10 µg/mL)” in assay [4]; “binds” in assay [5]; “binds” in assay [6]. The binding result is “binds” in assay [7] and “no binding” in assay [8].

B3: anti-TM4SF20 antibody B8 (antibody, mouse IgG2b, V domains shown)
VH: RVQLKESGPDLVQPSQTLSLTCTVSGFSLTNYGVHWIRQPPGKGLEWVGTVGWDDKKYYNSVLKSRLSINRDTSKNQVFLKLSSLQTEDTAMYYCTPYYDGSPYVMDYWGQGTSVTVSS
VL: DIVMSQSPSSLAVSAGEKVTMTCKSSQSLFDSGTRKNYLAWYQQKPGQSPKLLIYWASTRESGVPDRFTGSGSGTDFTLTISSVQAEDLAVYYCKQSYYLLTFGAGTKLELK
notes: also called clone B8
Turning to B3, the binding result was “no binding (tested: 5 µg/mL)” in assay [2], “no binding (tested: 5 µg/mL)” in assay [3], “no binding (tested: 10 µg/mL)” in assay [4] and “no binding” in assay [8].

B4: anti-TM4SF20 antibody B15 (antibody, mouse IgG2a, V domains shown)
VH: RVQLKESGPDLVQPSQTLSLTCTVSGFSLTNYGVHWIRQPPGKGLEWVGTVGWDDKKYYNSVLKSRLSINRDTSKNQVFLKLSSLQTEDTAMYYCTPYYDGSPYVMDYWGQGTSVTVSS
VL: DIVMSQSPSSLAVSAGEKVTMTCKSSQSLFDSGTRKNYLAWYQQKPGQSPKLLIYWASTRESGVPDRFTGSGSGTDFTLTISSVQAEDLAVYYCKQSYYLLTFGAGTKLELK
notes: also called clone B15
For the molecule B4, the binding result is reported as “no binding (tested: 5 µg/mL)” in assay [2], “no binding (tested: 5 µg/mL)” in assay [3], “no binding (tested: 10 µg/mL)” in assay [4] and “no binding” in assay [8].

B5: anti-TM4SF20 antibody C7 (antibody, mouse IgG1, V domains shown)
VH: QVQLKESGPDLVQPSQTLSLTCTVSGFSLSSYGVHWVRQPPGKGLEWVGTMGWDDKKYYNSALNSRLSLSRDTSKNQVFLKLSSLQTEDTAMYYCTRDYYSDGSFAYWGQGTLVTVSA
VL: DVLMTQTPLSLPVSLGDQASISCKSSQSIVHSDGNTYLQWYLQKPGQSPKLLIYKVSNRFSGVPDRFSGSGSGTDFTLKISRVEAEDLGIYYCFQGSHVPPTFGTGTKLEIK
notes: also called clone C7
Take B5: the binding result in assay [2] is “no binding (tested: 5 µg/mL)”; in assay [3] it was “no binding (tested: 5 µg/mL)”; in assay [4], “no binding (tested: 10 µg/mL)”; in assay [8] it was “no binding”.

B6: anti-TM4SF20 antibody C9 (antibody, mouse IgG1, V domains shown)
VH: QVQLKESGPDLVQPSQTLSLTCTVSGFSLSSYGVHWVRQPPGKGLEWVGTMGWDDKKYYNSALNSRLSLSRDTSKNQVFLKLSSLQTEDTAMYYCTRDYYSDGSFAYWGQGTLVTVSA
VL: DVLMTQTPLSLPVSLGDQASISCKSSQSIVHSDGNTYLQWYLQKPGQSPKLLIYKVSNRFSGVPDRFSGSGSGTDFTLKISRVEAEDLGIYYCFQGSHVPPTFGTGTKLEIK
notes: also called clone C9
As to B6, the binding result in assay [2] is on record as “no binding (tested: 5 µg/mL)”; in assay [3] it was “no binding (tested: 5 µg/mL)”; in assay [4], “no binding (tested: 10 µg/mL)”; in assay [8] it was “no binding”.
